These results are taken from patent US20130084295A1.

Where a chain is given by its changes, count along the chain named. Bounds are passed on as bounds.

The target in assay [1] is IFN-α (subtype not stated; antigen of the ELISA, BIAcore and Kinexa assays of Example 2) (human). Put plainly: Kinexa.
Assay [2] deals with leukocyte interferon (Sigma Product No. 1-2396): heterogeneous collection of IFN-α subtypes produced by activated leukocytes. Put plainly: cell-based or functional assay.
Assay [3] concerns the target IFN-α (subtype not stated; antigen of the ELISA, BIAcore and Kinexa assays of Example 2) (human). As to the kind of experiment: ELISA, IFN-α coated at 0.1 µg/ml, F(ab) at 10 µg/ml; SD 0.06, N 3. (In an ELISA, binding on a coated surface is turned into a signal by an enzyme label.)
The target is the same in assay [4]. Put plainly: ELISA, IFN-α coated at 0.1 µg/ml, F(ab) at 10 µg/ml; SD 0.32, N 3.
For assay [5] the target is unchanged. As to the kind of experiment: Kinexa. The source holds these as a separate data set.
Assay [6] shares this target. Put plainly: ELISA, IFN-α coated at 0.1 µg/ml, F(ab) at 10 µg/ml; SD 0.05, N 3.
Assay [7] shares this target. Put plainly: ELISA, IFN-α coated at 0.1 µg/ml, F(ab) at 10 µg/ml; SD 0.00, N 3.

B1: murine anti-human IFN-α monoclonal antibody 9F3 (antibody, IgG2, V domains shown)
VL: DIVLTQSPASLAVSLGQRATISCRASQSVSTSSYSYMHWYQQKPGQPPKVLISYASNLESGVPARFSGSGSGTDFTLNIHPVEEGDTATYFCQHSWGIPRTFGAGTKLELRRAV
VH: EVQLQQSGPELVKPGASVKISCKTSGYTFTEYIIHWVKQGHGRSLEWIGSINPDYDITNYNQRFKGKATLTLDKSSRTAYLELRSLTSEDSAVYYCASWISDFFDYWGQGTTLMVSAAS
B1 yielded a dissociation constant (Kd) in assay [1] of 1.5 pM. The same molecule yielded a neutralization of anti-viral activity (EMC virus, A549 cells; 10 µg/ml mAb) in assay [2] of more than 95%.

B2: humanized 9F3 F(ab) version F-11 (Fab, V domains shown)
VH: EVQLVESGGGLVQPGGSLRLSCATSGYTFTEYIIHWVRQAPGKGLEWVASINPDYDITNYNQRFKGRFTISLDKSSNTAYLQMNSLRAEDTAVYYCASWISDFFDYWGQGTLVTVSS
VL: DIQMTQSPSSLSASVGDRVTITCRASQSVSTSSYSYMHWYQQKPGKAPKLLIYYASNLESGVPSRFSGSGSGTDFTLTISSLQPEDFATYYCQHSWGIPRTFGQGTKVEIK
Consider B2, for which, in assay [3], the OD450 nm at 10 µg/ml (mean) worked out at 0.642 OD450 nm.

B3: humanized 9F3 F(ab) version F-15 (Fab, V domains shown)
VH: B2 VH with K74N, S76K, N77R
VL: B2 VL with L50V, Y53S
As to B3, in assay [4], the OD450 nm at 10 µg/ml (mean) turned out to be 0.868 OD450 nm.

B4: humanized 9F3 F(ab) version F-14 (Fab, V domains shown)
VH: B2 VH with L72R, S76K, N77R
VL: B2 VL with L50V, Y53S
In assay [3], B4 had an OD450 nm at 10 µg/ml (mean) of 0.472 OD450 nm.

B5: humanized recombinant anti-IFN-α monoclonal antibody V13IgG2 (antibody, V domains shown)
VH: B2 VH with S76K, N77R
VL: DIQMTQSPSSLSASVGDRVTITCRASQSVSTSSYSYMHWYQQKPGKAPKVLISYASNLESGVPSRFSGSGSGTDFTLTISSLQPEDFATYYCQHSWGIPRTFGQGTKVEIKR
For the molecule B5, the fold reduction of affinity against the parental murine 9F3 antibody in assay [5] amounted to 2 fold.

B6: humanized 9F3 F(ab) version F-12 (Fab, V domains shown)
VH: B2 VH with S76K, N77R
VL: B2 VL
For B6, in assay [6], the OD450 nm at 10 µg/ml (mean) was determined as 0.912 OD450 nm.

B7: humanized 9F3 F(ab) version F-1 (Fab, V domains shown)
VH: B2 VH with T24A, L72R, K74N, S76K, A79L, S98R
VL: B2 VL
In the case of B7, the OD450 nm at 10 µg/ml (mean) in assay [7] worked out at 0.06 OD450 nm.

In general, Kd refers to the constant that tells how readily two partners part at equilibrium.
